US20240228986A1, “ENGINEERED CELLS, ENZYMES, AND METHODS FOR PRODUCING CANNABINOIDS” (priority 2021, published 2024)

Columns and labels:
Type in all cases: cell-based, Yarrowia
olivetolic acid [1] = experiment: GPS1.1 fusions of MPT21 mutants, OA feed (Example 8, Table 10); conditions: in words; mutagenesis of MPT21, tested as GPS1.1-F11 fusions
Protocol: (§1) Overnight YPD (10 g/L yeast extract, 20 g/L peptone, 2% dextrose) cultures were inoculated from glycerol stocks of the appropriate strain and grown at 30° C. with 250 rpm shaking. Once cultures had reached an OD600 of 4-6, cultures were centrifuged at 500×g for 5 min, supernatants were discarded, and cell pellets were resuspended in equal volume of water. Resuspended cells were centrifuged at 500×g for 5 min, supernatants were discarded, and cells were resuspended in a volume (75 μL×OD×Vculture) of transformation cocktail (45% PEG-400, 0.1 M LiAc, 0.1 M DTT, and 25 ug/100 μL SS Salmon Sperm DNA). For each transformation, >1 μg of plasmid DNA was added to 55 μL cells/transformation cocktail and vortexed for 2 s. Transformations were incubated at 39° C. for 1 h with 250 rpm shaking. Transformations were resuspended in 750 μL YPD with 1 M sorbitol and recovered at 30° C. overnight with 250 rpm shaking. The next day, transformations were centrifuged at 500×g for 5 min, supernatants were discarded, and cell pellets were resuspended in 750 YPD. Resuspended transformations were plated on YPD with appropriate selection or YNBD (6.71 g/L yeast nitrogen base+nitrogen, 0.5% casamino acids, 2% dextrose) agar plates and grown at 30° C. for 2 days. Individual colonies were patched onto YPD plates with appropriate selection or YNBD plates and grown at 30° C. overnight. Patches were used to inoculate 0.5 mL YPD with appropriate selection or YNBD precultures in 96 w blocks and grown at 30° C. for 24-48 h with 1000 rpm shaking. For assays, 0.5 mL YPD with appropriate selection or YNBD cultures containing substrate were inoculated with 2 μL from precultures and grown at 30° C. for 2-4 days with 1000 rpm shaking with 2% glucose added every 24 h. Assay cultures were quenched by addition of 0.5 mL ethanol with 0.2% formic acid and 0.5 mg/mL pentyl-benzoic acid. Precipitates were pelleted by centrifuging at 4600×g for 10 min and then 200 μL was transferred to fresh plates, sealed, and analyzed via HPLC.
(§2) All samples were quenched with equal volume of EtOH containing 0.2 mg/mL internal standard (3,5-Diisopropyl-2-hydroxybenzoic acid CAS #2215-21-6) centrifuged, and clarified solutions were analyzed by HPLC-MS
(§3) • Column: 2.1×50 mm COSMOCORE PBr (Nacalai USA, Inc.) • Mobile Phase: A; 0.1% formic acid in water, B; 0.1% formic acid in acetonitrile • Flow: 0.45 mL/min • Temp: % 50 Celsius • Gradient: 20%B at 0 min, 70%B at 2.3 min, 89% B at 4.2 min, 20% B at 4.3 min, 20%B at 6 min

olivetolic acid [2] = experiment: GPS-APT fusions, OA feed in vivo assay (Example 11)
Protocol: As described below, plasmids pCL-SE-0406, pCL-SE-0664, pCL-SE-0663, pCL-SE-0662, pCL-SE-0380 (MPT4), pCL-SE-0337.MPT21, pCL-SE-0337.MPT26, and pCL-SE-0337.MPT31 were transformed into strain sCL-SE-0128. Multiple colonies per transformation were precultured for 48 h in YNB containing glucose (2%), casamino acids (0.5%), and MES (100 mM pH 6.5). Pre-culture was used to inoculate assay medium comprised of YNB containing glucose (2%), casamino acids (0.5%), MES (100 mM pH 6.5), and olivetolic acid (2 mM). Cultures were quenched with equal volume of ethanol after 48 h total growth and assayed for CBGA and FCBGA. Averages and standard deviations were calculated from replicates.
Soluble prenyl transferase APT73.77 was fused with GPS1.1 at the N- or C-terminus with different linkers creating the plasmids shown in Table 14. These fusion proteins were expressed and screened as described in Example 8 (olivetolic acid feed)
as §1, §2, §3

olivetolic acid [3] = experiment: Linkers for GPS1.1-MPT4 fusions, in vivo assay (Example 6); conditions: 1 mM olivetolic acid, 72 h quench; for CBGA / FCBGA: 2% glycerol, strain sCL-SE-0128; for CBGA/FCBGA: product ratio
Protocol: As described in detail below, plasmids pCL-SE-0380 (MPT4), pCL-SE-0406, pCL-SE-0435, and pCL-SE-0437 were transformed into strain sCL-SE-0128. Four separate colonies per transformation were precultured for 24 h in YNB containing glycerol (2%), casamino acids (0.5%), and MES (100 mM pH 6.5). Pre-culture was used to inoculate assay medium comprised of YNB containing glycerol (2%), casamino acids (0.5%), MES (100 mM pH 6.5), and olivetolic acid (1 mM). Cultures were quenched after 72 h total growth by mixing with equal volume of EtOH. Enzymes produced CBGA and FCBGA. Averages and standard deviations were calculated from replicates.
However, sCL-SE-0128 expresses HMGR and GPS1.1 to increase intracellular GPP levels for prenylation of OA to CBGA. The plasmids that were transformed contain either a gene expressing a prenyl-transferase (pCL-SE-0380 (MPT4)) or a gene expressing a fusion between GPS1.1 and a prenyl-transferase with different linker sequences.
as §1, §2, §3

[4] = olivetolic acid feed as in Example 8, 48 h quench, strain sCL-SE-0128

| Molecule | activity towards CBGA formation (olivetolic acid [1]) | CBGA (olivetolic acid [3]) [µM] | FCBGA (olivetolic acid [3]) [µM] | CBGA/FCBGA (olivetolic acid [3]) | further results |
| --- | --- | --- | --- | --- | --- |
| MPT21.9 (protein, MPT21.9 (recombinant membrane-bound prenyltransferase)) MSDNSIATKILNFGHTCWKLQRPYVVKGMISIACGLFGKELLHNTNLISWGLMWKAFFALVPILSFNFFASIMNQIYDVDIDRINKPDLPLVSGEMSIETAWILSIIVALTGLIVTIKLKSAPLFVFIYIFGIFAGFAYSVPPIRWKQNPSTNFLITISSHVGLAFTSYYASRAALGLPFELRPSFTFLLAFMTVMGMTIAFAKDISDIEGDAKYGVSTVATKLGARNMTFVVSGVLLLNYVAAILAGIIWPQAFNSNVMLLSHAILAFCLIFQTRELALANYASAPSRQFFEFIWLLYYAEYFVYVFI | improved activity towards CBGA formation |  |  |  |  |
| MPT21.18 (protein, MPT21.18 (recombinant membrane-bound prenyltransferase)) MSDNSIATKILNFGHTCWKLQRPYVVKGMISIACGLFGKELLHNTNLISWGLMWKAFFALVPILSFNFFAAIMNQIYDVDIDRINKPDLPLVSGEMSIETAWILSIIVALTGLIVTIKLKSAPLFVFIYIFGIFAGFAYSVPPIRWKQNPSTNFLITISSHVGLAFTSYYASRAALGLPFELRPSFTFLLAFMTVMGMTIAFAKDISDIEGDAKYGVSTVATKLGARNMTFVVSGVLLLNYVAAILAGIIWPQAFNSNVMLLSHAILAFCLIFQARELALANYASAPSRQFFEFIWLLYYAEYFVYVFI | improved activity towards CBGA formation |  |  |  |  |
| MPT21.2 (protein, MPT21.2 (recombinant membrane-bound prenyltransferase)) MSDNSIATKILNFGHTCWKLQRPMVVKGMISIACGLFGKELLHNTNLISWGLMWKAFFALVPILSFNFFAAIMNQIYDVDIDRINKPDLPLVSGEMSIETAWILSIIVALTGLIVTIKLKSAPLFVFIYIFGIFAGFAYSVPPIRWKQNPSTNFLITISSHVGLAFTSYYASRAALGLPFELRPSFTFLLAFMTVMGMTIAFAKDISDIEGDAKYGVSTVATKLGARNMTFVVSGVLLLNYVAAILAGIIWPQAFNSNVMLLSHAILAFCLIFQTRELALANYASAPSRQFFEFIWLLYYAEYFVYVFI |  |  |  |  | ratio of CBGA/FCBGA (olivetolic acid [1]): improved ratio of CBGA/FCBGA |
| APT73.77-F18-GPS1.1: fusion protein, SEQ ID NO: 66 (protein, APT73.77-F18-GPS1.1, mutant soluble aromatic prenyltransferase, geranyl diphosphate synthase fusion protein) MDEVYAAVEQTSRLLDVPCSPDRFEPVWKAFGDQLPDSHLVFSMAAGEAHRGELDFDFSLRPEGADPYTTALEHGFIEPTDHPVGSVLAEVGKRFAIASYGVEYGVVGGFKKSYAFFPLDDFPPLAQFAEVPSVPPCLAGHVETLTRLGFDDKVSIIGVNYRKNTLNVYLAASAVDTGDKLALLRAFGYPEPDARVRQFIERSFRLYPTFNWDSSAAERICFAVHTQQPGELPAPHDEPTEAFARQVPHVYEGGREFVSGVALAPSGASYYKLAALYQKARRCLDGGGGSLEDPAVWEAGKVVAKGVGTADITATTSNGLIASSEEADNAATSMSKAKFESVFPRISEELVQLLRDEGLPQDAVQWFSDSLQYNCVGGKLNRGLSVVDTYQLLTGKKELDDEEYYRLALLGWLIELLQAFWLVSDDIMDESKTRRGQPCWYLKPKVGMIAIWDAFMLESGIYILLKKHFRQEKYYIDLVELFHDISFKTELGQLVDLLTAPEDEVDLNRFSLDKHSFIVRYKTAYYSFYLPVVLAMYVAGITNPKDLQQAMDVLIPLGEYFQVQDDYLDNFGDPEFIGKIGTDIQDNKCSWLVNKALQKATPEQRQILEDNYGVKDKSKELVIKKLYDDMKIEQDYLDYEEEVVGDIKKKIEQVDESRGFKKEVLNAFLAKIYKRQK |  |  |  |  | CBGA (olivetolic acid [2]; [4]): 382 ± 26 µM; FCBGA (olivetolic acid [2]; [4]): 149 ± 4 µM; CBGA/FCBG (olivetolic acid [2]; olivetolic acid feed, 48 h quench, product ratio): 2.6 |
| GPS1.1-F10-MPT4: fusion protein, SEQ ID NO: 19 (protein, GPS1.1-F10-MPT4, geranyl diphosphate synthase, membrane-bound prenyltransferase fusion protein) MSKAKFESVFPRISEELVQLLRDEGLPQDAVQWFSDSLQYNCVGGKLNRGLSVVDTYQLLTGKKELDDEEYYRLALLGWLIELLQAFWLVSDDIMDESKTRRGQPCWYLKPKVGMIAIWDAFMLESGIYILLKKHFRQEKYYIDLVELFHDISFKTELGQLVDLLTAPEDEVDLNRFSLDKHSFIVRYKTAYYSFYLPVVLAMYVAGITNPKDLQQAMDVLIPLGEYFQVQDDYLDNFGDPEFIGKIGTDIQDNKCSWLVNKALQKATPEQRQILEDNYGVKDKSKELVIKKLYDDMKIEQDYLDYEEEVVGDIKKKIEQVDESRGFKKEVLNAFLAKIYKRQKGGAEAAAKEAAAKAAEAAAKEAAAKAAEAAAKEAAAKAAEAAAKEAAAKAGGMSDNSIATKILNFGHTCWKLQRPYVVKGMISIACGLFGRELFNNRHLFSWGLMWKAFFALVPILSFNFFAAIMNQIYDVDIDRINKPDLPLVSGEMSIETAWILSIIVALTGLIVTIKLKSAPLFVFIYIFGIFAGFAYSVPPIRWKQYPFTNFLITISSHVGLAFTSYSATTSALGLPFVWRPAFSFIIAFMTVMGMTIAFAKDISDIEGDAKYGVSTVATKLGARNMTFVVSGVLLLNYLVSISIGIIWPQVFKSNIMILSHAILAFCLIFQTRELALANYASAPSRQFFEFIWLLYYAEYFVYVFI |  | 350 ± 17 | 54 ± 1 | 6.5 |  |
| GPS1.1-F5-MPT4: fusion protein, SEQ ID NO: 17 (protein, GPS1.1-F5-MPT4, geranyl diphosphate synthase, membrane-bound prenyltransferase fusion protein) MSKAKFESVFPRISEELVQLLRDEGLPQDAVQWFSDSLQYNCVGGKLNRGLSVVDTYQLLTGKKELDDEEYYRLALLGWLIELLQAFWLVSDDIMDESKTRRGQPCWYLKPKVGMIAIWDAFMLESGIYILLKKHFRQEKYYIDLVELFHDISFKTELGQLVDLLTAPEDEVDLNRFSLDKHSFIVRYKTAYYSFYLPVVLAMYVAGITNPKDLQQAMDVLIPLGEYFQVQDDYLDNFGDPEFIGKIGTDIQDNKCSWLVNKALQKATPEQRQILEDNYGVKDKSKELVIKKLYDDMKIEQDYLDYEEEVVGDIKKKIEQVDESRGFKKEVLNAFLAKIYKRQKGGGGSGGGGSGGGGSMSDNSIATKILNFGHTCWKLQRPYVVKGMISIACGLFGRELFNNRHLFSWGLMWKAFFALVPILSFNFFAAIMNQIYDVDIDRINKPDLPLVSGEMSIETAWILSIIVALTGLIVTIKLKSAPLFVFIYIFGIFAGFAYSVPPIRWKQYPFTNFLITISSHVGLAFTSYSATTSALGLPFVWRPAFSFIIAFMTVMGMTIAFAKDISDIEGDAKYGVSTVATKLGARNMTFVVSGVLLLNYLVSISIGIIWPQVFKSNIMILSHAILAFCLIFQTRELALANYASAPSRQFFEFIWLLYYAEYFVYVFI |  | 333 ± 129 | 49 ± 15 | 6.8 |  |
